Values quoted from earlier work, collected in paper PMC9303997.

Columns and labels:
VPS4B MIT (Homo sapiens) = VPS4B MIT (Homo sapiens) (UniProt O75351)
[1] = biological target: spastin MIT (Homo sapiens) (UniProt Q9UBP0)
Sequence of spastin MIT (Homo sapiens) (Q9UBP0 117-198): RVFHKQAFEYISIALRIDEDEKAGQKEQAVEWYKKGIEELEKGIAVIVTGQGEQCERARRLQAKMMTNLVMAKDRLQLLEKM

Sequence of VPS4B MIT (Homo sapiens) (O75351 1-85): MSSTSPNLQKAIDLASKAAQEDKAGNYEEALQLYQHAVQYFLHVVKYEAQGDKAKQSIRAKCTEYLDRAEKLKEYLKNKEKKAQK

IST1 MIM (from UniProt P53990)
Kd (VPS4B MIT (Homo sapiens)): 12 nM
Kd [1]: 0.5 nM
